B1: suPAR_DB02_D01 (scFv, V domains shown)
VH: QVQLVQSGAEVKKPGASVKVSCKASGYTFTDYYMHWVRQAPGQGLEWMGWIDHENGNTIYDQKFQGRVTMTRDTSTSTVYMELSSLRSEDTAVYYCARGYDVDWFVYWGQGTLVTVSS
VL: DIQMTQSPSSLSASVGDRVTITCSARSSVSYMYWYQQKPGKAPKLLIYRTSNLASGVPSRFSGSGSGTDFTLTISSLQPEDFATYYCQQYHSYPPTFGGGTKVEIK
notes: scFv clone from phage display
B2: suPAR_DB02_E06 (scFv, V domains shown)
VH: B1 VH with D31G, H53P
VL: B1 VL
notes: scFv clone from phage display
B3: suPAR_DB02_D05 (scFv, V domains shown)
VH: B1 VH with D31S
VL: B1 VL
notes: scFv clone from phage display
B4: suPAR_DB02_C06 (scFv, V domains shown)
VH: B1 VH with Y27F, T28N, F29I
VL: B1 VL with R26S, S27Q
notes: scFv clone from phage display
B5: suPAR_DB02_D04 (scFv, V domains shown)
VH: B1 VH with Y27F, F29I, T30K, H53P, E54D, N55S, N57G, I59N, D61A, Q62E
VL: B1 VL with S24R, S27Q
notes: scFv clone from phage display
B6: suPAR_DB02_D02 (scFv, V domains shown)
VH: B1 VH with Y27D, D31S, N55G, I59S, D61A
VL: B1 VL
notes: scFv clone from phage display
B7: suPAR_DB02_F11 (scFv, V domains shown)
VH: B1 VH with D31S, Y32S
VL: B1 VL with S24R, V29I
notes: scFv clone from phage display
B8: suPAR_DB02_C10 (scFv, V domains shown)
VH: B1 VH with M34V, N55G, N57S
VL: B1 VL
notes: scFv clone from phage display
B9: suPAR_DB02_D06 (scFv, V domains shown)
VH: B1 VH with Y27D, T30A, D31N, D52I, H53P, E54N, N55S, N57D, I59N, D61A
VL: B1 VL with N52S, A54Q
notes: scFv clone from phage display
B10: suPAR_DB02_F06 (scFv, V domains shown)
VH: QVQLVQSGAEVKKPGASVKVSCKASGFNFTDYYIHWVRQAPGQGLEWMGWIDPNSGSTNYAQNFQGRVTMTRDTSTSTVYMELSSLRSEDTAVYYCARGYMVDWFVYWGQGTLVTVSS
VL: B1 VL
notes: scFv clone from phage display
B11: suPAR_DB02_D03 (scFv, V domains shown)
VH: B1 VH with D31S, Y32H
VL: B1 VL
notes: scFv clone from phage display
B12: suPAR_DB02_F04 (scFv, V domains shown)
VH: B1 VH with F29L, D31S, M34V, H53P, E54K, N55S, N57D, I59K, D61A, Q62H
VL: B1 VL
notes: scFv clone from phage display
B13: suPAR_DB02_F09 (scFv, V domains shown)
VH: B1 VH with D31G, H53P, N55G, N57S, R98G
VL: B1 VL
notes: scFv clone from phage display
B14: suPAR_DB02_C11 (scFv, V domains shown)
VH: B1 VH with T28N, T30K, M34I, N57S, D61A
VL: B1 VL with S27Q
notes: scFv clone from phage display
B15: suPAR_DB02_E04 (scFv, V domains shown)
VH: B1 VH with D31N, M34I, H35Q
VL: B1 VL
notes: scFv clone from phage display
B16: suPAR_DB02_F08 (scFv, V domains shown)
VH: B1 VH with D31G, M34I, H53P, D61A
VL: B1 VL with R26S, V29I
notes: scFv clone from phage display
B17: suPAR_DB02_F12 (scFv, V domains shown)
VH: B1 VH with Y27D, T28M, D31G, M34L
VL: B1 VL with N52S
notes: scFv clone from phage display
B18: suPAR_DB02_D08 (scFv, V domains shown)
VH: B1 VH with D31N
VL: B1 VL with S24R, S27Q
notes: scFv clone from phage display
B19: suPAR_DB02_E05 (scFv, V domains shown)
VH: B10 VH with F29I, T30K, I51V, N54S, S57A, N59D, N63K, M101D
VL: B1 VL
notes: scFv clone from phage display
B20: suPAR_DB02_C09 (scFv, V domains shown)
VH: B1 VH with D31G, M48V, W50L, D52N, H53P, E54S, N55D, N57Y, I59T, D61A
VL: B1 VL
notes: scFv clone from phage display
B21: suPAR_DB02_C12 (scFv, V domains shown)
VH: B1 VH with F29L, H53P, N55G, I59S
VL: B1 VL
notes: scFv clone from phage display
B22: suPAR_DB02_G10 (scFv, V domains shown)
VH: B1 VH with D31N, H53P, N57S
VL: B1 VL with S24R, S27Q, A54E, S55T
notes: scFv clone from phage display
B23: suPAR_DB02_G11 (scFv, V domains shown)
VH: B1 VH with Y27D, D31G, N55G, D61A
VL: B1 VL
notes: scFv clone from phage display
B24: suPAR_DB02_E09 (scFv, V domains shown)
VH: B10 VH with F29I, T30K, S57G, N63K, M101D
VL: B1 VL
notes: scFv clone from phage display
B25: suPAR_DB02_G09 (scFv, V domains shown)
VH: B10 VH with N28T, F29I, T30K, I34M, N54S, S55N, S57A, Y60S, M101D
VL: B1 VL with S24R, R26S
notes: scFv clone from phage display
B26: suPAR_DB02_D12 (scFv, V domains shown)
VH: B1 VH with T30S, D31N, N55G, N57S, D61A
VL: B1 VL with Y90S
notes: scFv clone from phage display
B27: suPAR_DB02_F07 (scFv, V domains shown)
VH: B1 VH with D31G, M34V, H53P, N55G
VL: B1 VL with S24R, S27Q, A54Q
notes: scFv clone from phage display
B28: suPAR_DB02_D11 (scFv, V domains shown)
VH: B1 VH with Y27F, T28N, F29I, T30K, M34I, H53P
VL: B1 VL
notes: scFv clone from phage display
B29: suPAR_DB02_G05 (scFv, V domains shown)
VH: B1 VH with D31G, Y32H, H53P, N55G, D61A
VL: B1 VL with R26S
notes: scFv clone from phage display
B30: suPAR_DB02_D10 (scFv, V domains shown)
VH: B1 VH with D31G, H53P, N55G
VL: B1 VL
notes: scFv clone from phage display
B31: suPAR_DB02_E02 (scFv, V domains shown)
VH: B1 VH
VL: B1 VL with N52S, A54Q
notes: scFv clone from phage display
B32: suPAR_DB02_E11 (scFv, V domains shown)
VH: B1 VH with Y27G, T30S, D31N
VL: B1 VL with S24R, S27Q, N52S
notes: scFv clone from phage display
B33: suPAR_DB02_H02 (scFv, V domains shown)
VH: B1 VH with D31G, M34L, H53P, N57S
VL: B1 VL
notes: scFv clone from phage display
B34: suPAR_DB02_C07 (scFv, V domains shown)
VH: B10 VH with F27Y, N28T, Y32S, P53A, S55N, S57D, Q62E, N63R, M101D
VL: B1 VL
notes: scFv clone from phage display

Substitutions are numbered along the chain they refer to.

A word on the koff: it is the first-order rate constant of dissociation. Low readings indicate a long-lived complex, high ones a short-lived complex.

T1 sequence (Q9GK78 23-303 limits assumed): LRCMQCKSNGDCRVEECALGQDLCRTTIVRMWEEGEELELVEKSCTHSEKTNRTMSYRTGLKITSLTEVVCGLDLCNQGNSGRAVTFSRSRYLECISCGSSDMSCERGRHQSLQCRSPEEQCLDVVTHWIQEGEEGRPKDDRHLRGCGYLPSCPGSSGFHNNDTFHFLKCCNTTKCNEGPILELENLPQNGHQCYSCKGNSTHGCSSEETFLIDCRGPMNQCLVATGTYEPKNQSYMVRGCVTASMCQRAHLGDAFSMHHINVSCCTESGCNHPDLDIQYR

The first assay addresses T1, cynomolgus soluble urokinase plasminogen activator receptor (suPAR) (cynomolgus, UniProt Q9GK78 23-303, limits assumed).
T1 construct: Column head says only 'cynomologus'; also called cynomolgus suPAR; cynomolgus uPAR
Description: BLI (Octet) off-rate screen of scFv clones. For orientation: Biolayer interferometry detects binding as a change in optical thickness at a sensor tip.
B1 gave an off-rate (koff) of 4.7e-07 s⁻¹. Take B2: the koff turned out to be 0.000295 s⁻¹.

B3 showed a koff of 0.000305 s⁻¹. B4 yielded a koff of 0.000141 s⁻¹. The molecule B5 gave a koff of 0.000281 s⁻¹.

As to B6, the koff was determined as 2.49e-05 s⁻¹. B7 had a koff of 0.000613 s⁻¹. Molecule B8 showed a koff of 0.000198 s⁻¹. B9 had a koff of 0.00051 s⁻¹. For B10, the koff amounted to 0.000174 s⁻¹. B11 had a koff of 0.000188 s⁻¹. On to B12, for which the koff came out at 0.000453 s⁻¹. With B13, the koff turned out to be 0.000624 s⁻¹.

For B14, the koff was 0.0004 s⁻¹. On to B15, for which the koff turned out to be 0.000217 s⁻¹. B16 came in with a koff of 2.47e-05 s⁻¹. Molecule B17 yielded a koff of 9.82e-05 s⁻¹.

B18 had a koff of 0.000345 s⁻¹. In turn, B19 returned a koff of 0.00146 s⁻¹. The same measure, in the same setting: as for B20, the figure is 0.000335 s⁻¹. The molecule B21 showed a koff of 0.000582 s⁻¹. Consider B22, for which the koff worked out at 0.00043 s⁻¹. Consider B23, for which the koff came to 0.00013 s⁻¹. Same read-out and setting: as for B24, the figure is 0.00021 s⁻¹; as for B25, 0.00025 s⁻¹; as for B26, 0.0038 s⁻¹. For the molecule B27, the koff was 0.000384 s⁻¹. The same measure, in the same setting: the same measure for B28: 0.000265 s⁻¹.

In the case of B29, the koff came out at 0.000521 s⁻¹. On to B30, for which the koff was 0.000381 s⁻¹.

With B31, the koff was 0.000189 s⁻¹. In turn, B32 came in with a koff of 0.000376 s⁻¹. B33 yielded a koff of 0.000498 s⁻¹.

For the next assay, the target named is T2, human soluble urokinase plasminogen activator receptor (suPAR) (human, UniProt Q03405 23-303, limits assumed).
T2 construct: Column head says only 'human'; also called human suPAR; hsuPAR
T2 sequence (Q03405 23-303 limits assumed): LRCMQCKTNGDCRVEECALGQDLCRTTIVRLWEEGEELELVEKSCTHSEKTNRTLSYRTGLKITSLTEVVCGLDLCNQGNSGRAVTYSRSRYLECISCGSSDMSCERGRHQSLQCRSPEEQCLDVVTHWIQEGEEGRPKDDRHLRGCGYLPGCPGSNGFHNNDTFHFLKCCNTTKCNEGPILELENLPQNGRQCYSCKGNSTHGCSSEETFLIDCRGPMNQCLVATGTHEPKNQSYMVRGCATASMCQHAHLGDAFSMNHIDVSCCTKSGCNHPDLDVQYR
Briefly: BLI (Octet) off-rate screen of scFv clones.
B1 gave a koff of 0.003 s⁻¹. For the molecule B2, the koff was 0.00239 s⁻¹. In the case of B3, the koff was 0.00358 s⁻¹. With B4, the off-rate constant (koff) is 0.00475 s⁻¹. The same measure, in the same setting: the same measure for B5: 0.0041 s⁻¹. For the molecule B6, the koff was 0.00436 s⁻¹. The molecule B7 displayed a koff of 0.00198 s⁻¹. On the same count and under the same terms, as for B8, the figure is 0.00257 s⁻¹; as for B34, 0.0026 s⁻¹. The same measure, in the same setting: as for B9, the figure is 0.00416 s⁻¹. Molecule B10 came in with a koff of 0.00495 s⁻¹. In the case of B11, the dissociation rate constant (koff) is 0.0055 s⁻¹. B12: the koff came out at 0.00384 s⁻¹.

For B13, the koff is 0.00166 s⁻¹.

Turning to B14, the off-rate constant (koff) was determined as 0.0049 s⁻¹. For the molecule B15, the koff was determined as 0.00311 s⁻¹. In the case of B16, the koff turned out to be 0.0021 s⁻¹. On the same count and under the same terms, the same measure for B17: 0.00494 s⁻¹. Still for that read-out and setting: the same measure for B18: 0.00202 s⁻¹; for B19: 0.00239 s⁻¹. Molecule B20 returned a koff of 0.00387 s⁻¹.

B21: the koff was 0.00319 s⁻¹. Take B22: the koff was 0.00562 s⁻¹.

Molecule B23 had a koff of 0.00561 s⁻¹.

B24 came in with a koff of 0.00473 s⁻¹.

The molecule B25 registered a koff of 0.00733 s⁻¹. On the same count and under the same terms, as for B26, the figure is 0.00611 s⁻¹; as for B27, 0.002 s⁻¹; as for B28, 0.00415 s⁻¹. Take B29: the koff came to 0.00242 s⁻¹.

On to B30, for which the koff is 0.00178 s⁻¹. B31 returned a koff of 0.00438 s⁻¹. With B32, the koff amounted to 0.00423 s⁻¹. As to B33, the koff amounted to 0.00579 s⁻¹.

Source of the values: patent US20250215104A1 (WALDEN BIOSCIENCES, published 2025).
